Several values for one entry are separate records, joined by “and”; a condition that tells them apart may be missing. Equal values may be shown once.
Tests used:
Format in all cases: binding
Conditions in all cases: response relative to ADIFAB2
[1] = Probe fluorescence ratio response to arachidonic acid relative to ADIFAB2
Summary of the method: (§1)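 Fluorescently labeled rat intestinal FABP variants were read at two emission wavelengths, near the unbound maximum (about 420 to 480 nm) and the FFA-bound maximum (about 495 to 580 nm). R = Fλ1/Fλ2 after subtracting probe-free intensity; ΔR = R+agent − R0, normalized to ADIFAB2 (rI-FABP-L72A).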

[2] = Probe fluorescence ratio response to linolenic acid relative to ADIFAB2
Summary of the method: as §1

[3] = Probe fluorescence ratio response to linoleic acid relative to ADIFAB2
Summary of the method: as §1

[4] = Probe fluorescence ratio response to oleic acid relative to ADIFAB2
Summary of the method: as §1

[5] = Probe fluorescence ratio response to palmitic acid relative to ADIFAB2
Summary of the method: as §1

Molecule | DR/DR AA ([1]; Arachidonic acid) | DR/DR LNA [2] | DR/DR LA [3] | DR/DR OA [4] | DR/DR PA [5] | DR/DR AA ([1]; arachidonic acid)
60S, 72A (protein, listed as Rattus norvegicus, PEPTIDE (1)...(131) wild-type rat intestinal fatty acid binding protein) AFDGTWKVDRNENYEKFMEKMGINVVKRKLGAHDNLKLTITQEGNKFTVKESSNFRNIDSVFELGVDFAYSAADGTELTGTWTMEGNKLVGKFKRVDNGKELIAVREISGNELIQTYTYEGVEAKRIFKKE | 0.56 | 0.71 | 0.72 | 0.67 | 0.59 | –
62G, 72A (protein, listed as Rattus norvegicus, PEPTIDE (1)...(131) wild-type rat intestinal fatty acid binding protein) AFDGTWKVDRNENYEKFMEKMGINVVKRKLGAHDNLKLTITQEGNKFTVKESSNFRNIDVVGELGVDFAYSAADGTELTGTWTMEGNKLVGKFKRVDNGKELIAVREISGNELIQTYTYEGVEAKRIFKKE | 1.43 | 1.44 | 1.44 | 1.46 | 1.26 | –
62I, 72A (protein, listed as Rattus norvegicus, PEPTIDE (1)...(131) wild-type rat intestinal fatty acid binding protein) AFDGTWKVDRNENYEKFMEKMGINVVKRKLGAHDNLKLTITQEGNKFTVKESSNFRNIDVVIELGVDFAYSAADGTELTGTWTMEGNKLVGKFKRVDNGKELIAVREISGNELIQTYTYEGVEAKRIFKKE | 1.40 | 1.38 | 1.36 | 1.37 | 1.27 | –
62N, 72A (protein, listed as Rattus norvegicus, PEPTIDE (1)...(131) wild-type rat intestinal fatty acid binding protein) AFDGTWKVDRNENYEKFMEKMGINVVKRKLGAHDNLKLTITQEGNKFTVKESSNFRNIDVVNELGVDFAYSAADGTELTGTWTMEGNKLVGKFKRVDNGKELIAVREISGNELIQTYTYEGVEAKRIFKKE | 1.40 | 1.40 | 1.34 | 1.37 | 1.29 | –
62H, 72A (protein, listed as Rattus norvegicus, PEPTIDE (1)...(131) wild-type rat intestinal fatty acid binding protein) AFDGTWKVDRNENYEKFMEKMGINVVKRKLGAHDNLKLTITQEGNKFTVKESSNFRNIDVVHELGVDFAYSAADGTELTGTWTMEGNKLVGKFKRVDNGKELIAVREISGNELIQTYTYEGVEAKRIFKKE | 1.42 | 1.44 | 1.40 | 1.40 | 1.24 | –
62C, 72A (protein, listed as Rattus norvegicus, PEPTIDE (1)...(131) wild-type rat intestinal fatty acid binding protein) AFDGTWKVDRNENYEKFMEKMGINVVKRKLGAHDNLKLTITQEGNKFTVKESSNFRNIDVVCELGVDFAYSAADGTELTGTWTMEGNKLVGKFKRVDNGKELIAVREISGNELIQTYTYEGVEAKRIFKKE | 1.30 | 1.31 | 1.31 | 1.29 | 1.18 | –
62E, 72A (protein, listed as Rattus norvegicus, PEPTIDE (1)...(131) wild-type rat intestinal fatty acid binding protein) AFDGTWKVDRNENYEKFMEKMGINVVKRKLGAHDNLKLTITQEGNKFTVKESSNFRNIDVVEELGVDFAYSAADGTELTGTWTMEGNKLVGKFKRVDNGKELIAVREISGNELIQTYTYEGVEAKRIFKKE | 1.48 | 1.52 | 1.49 | 1.52 | 1.40 | –
60T, 72A (protein, listed as Rattus norvegicus, PEPTIDE (1)...(131) wild-type rat intestinal fatty acid binding protein) AFDGTWKVDRNENYEKFMEKMGINVVKRKLGAHDNLKLTITQEGNKFTVKESSNFRNIDTVFELGVDFAYSAADGTELTGTWTMEGNKLVGKFKRVDNGKELIAVREISGNELIQTYTYEGVEAKRIFKKE | 1.72 | 1.73 | 1.73 | 1.76 | 1.49 | –
62D, 72A (protein, listed as Rattus norvegicus, PEPTIDE (1)...(131) wild-type rat intestinal fatty acid binding protein) AFDGTWKVDRNENYEKFMEKMGINVVKRKLGAHDNLKLTITQEGNKFTVKESSNFRNIDVVDELGVDFAYSAADGTELTGTWTMEGNKLVGKFKRVDNGKELIAVREISGNELIQTYTYEGVEAKRIFKKE | 1.49 | 1.58 and 1.576 | 1.60 and 1.598 | 1.57 and 1.574 | 1.39 and 1.385 | 1.485
62A, 72A (protein, listed as Rattus norvegicus, PEPTIDE (1)...(131) wild-type rat intestinal fatty acid binding protein) AFDGTWKVDRNENYEKFMEKMGINVVKRKLGAHDNLKLTITQEGNKFTVKESSNFRNIDVVAELGVDFAYSAADGTELTGTWTMEGNKLVGKFKRVDNGKELIAVREISGNELIQTYTYEGVEAKRIFKKE | 1.08 | 1.08 | 0.96 | 0.86 | 0.57 | –
68C, 72A (protein, listed as Rattus norvegicus, PEPTIDE (1)...(131) wild-type rat intestinal fatty acid binding protein) AFDGTWKVDRNENYEKFMEKMGINVVKRKLGAHDNLKLTITQEGNKFTVKESSNFRNIDVVFELGVDCAYSAADGTELTGTWTMEGNKLVGKFKRVDNGKELIAVREISGNELIQTYTYEGVEAKRIFKKE | 0.18 | 0.25 | 0.12 | 0.29 | 0.13 | –
62T, 72A (protein, listed as Rattus norvegicus, PEPTIDE (1)...(131) wild-type rat intestinal fatty acid binding protein) AFDGTWKVDRNENYEKFMEKMGINVVKRKLGAHDNLKLTITQEGNKFTVKESSNFRNIDVVTELGVDFAYSAADGTELTGTWTMEGNKLVGKFKRVDNGKELIAVREISGNELIQTYTYEGVEAKRIFKKE | 0.99 | 0.96 | 1.02 | 1.00 | 0.65 | –
60W, 72A (protein, listed as Rattus norvegicus, PEPTIDE (1)...(131) wild-type rat intestinal fatty acid binding protein) AFDGTWKVDRNENYEKFMEKMGINVVKRKLGAHDNLKLTITQEGNKFTVKESSNFRNIDWVFELGVDFAYSAADGTELTGTWTMEGNKLVGKFKRVDNGKELIAVREISGNELIQTYTYEGVEAKRIFKKE | 0.67 | 0.74 and 0.739 | 0.84 and 0.837 | 0.76 and 0.763 | 0.59 and 0.595 | 0.670
68E, 72A (protein, listed as Rattus norvegicus, PEPTIDE (1)...(131) wild-type rat intestinal fatty acid binding protein) AFDGTWKVDRNENYEKFMEKMGINVVKRKLGAHDNLKLTITQEGNKFTVKESSNFRNIDVVFELGVDEAYSAADGTELTGTWTMEGNKLVGKFKRVDNGKELIAVREISGNELIQTYTYEGVEAKRIFKKE | 0.89 | 0.92 | 0.96 | 0.91 | 0.53 | –
68A, 72A (protein, listed as Rattus norvegicus, PEPTIDE (1)...(131) wild-type rat intestinal fatty acid binding protein) AFDGTWKVDRNENYEKFMEKMGINVVKRKLGAHDNLKLTITQEGNKFTVKESSNFRNIDVVFELGVDAAYSAADGTELTGTWTMEGNKLVGKFKRVDNGKELIAVREISGNELIQTYTYEGVEAKRIFKKE | 0.23 | 0.19 | 0.18 | 0.19 | 0.13 | –
102Y, 72A (protein, listed as Rattus norvegicus, PEPTIDE (1)...(131) wild-type rat intestinal fatty acid binding protein) AFDGTWKVDRNENYEKFMEKMGINVVKRKLGAHDNLKLTITQEGNKFTVKESSNFRNIDVVFELGVDFAYSAADGTELTGTWTMEGNKLVGKFKRVDNGKEYIAVREISGNELIQTYTYEGVEAKRIFKKE | – | 0.73 and 0.732 | 0.82 and 0.818 | 0.86 | 0.39 and 0.387 | 0.72 and 0.718
68D, 72A (protein, listed as Rattus norvegicus, PEPTIDE (1)...(131) wild-type rat intestinal fatty acid binding protein) AFDGTWKVDRNENYEKFMEKMGINVVKRKLGAHDNLKLTITQEGNKFTVKESSNFRNIDVVFELGVDDAYSAADGTELTGTWTMEGNKLVGKFKRVDNGKELIAVREISGNELIQTYTYEGVEAKRIFKKE | 1.24 | 1.23 | 1.23 | 1.13 | 0.52 | –

Reference: patent US20060257938A1, “Method of screening for drugs that block ligand binding to a lipid binding protein” (priority 2005, published 2006)
